# Reference: patent US12553037B2, “Engineered class 2, type V repressor systems” (Scribe Therapeutics Inc., priority 2021, dated 2026)
# Experiments:
# [1] = test system: human B2M locus; assay: Editing (indel rate by NGS) at the B2M locus by catalytically-dead CasX variants (Example 8); type: cell-based; conditions: B2M-targeting spacer 7.37, HEK293T, six days after transfection
# [2] = test system: endogenous B2M (beta-2-microglobulin) gene; assay: B2M protein expression by HLA antibody staining and flow cytometry (Example 1); type: cell-based, human; conditions: HEK293T, seven days post-transfection
# Excerpt: dXR variant plasmids encoding constructs having the configuration of U6-gRNA+Ef1α-NLS-GGS-dCasX491-GGS-KRAB variant-NLS (dCasX491 refers to catalytically-dead CasX 491), were transiently transfected into HEK293T cells in an arrayed 96-well format. These constructs also contained a 2× FLAG sequence, as well as sequences encoding either a gRNA scaffold 174 (SEQ ID NO: 2238) having a spacer (spacer 7.37) targeting the endogenous B2M (beta-2-microglobulin) gene or a non-targeting control (spacer 0.0), which were all cloned upstream of a P2A-puromycin element on the plasmid. Four different effector domains were tested in addition to the “naked” dCasX491 (KRAB variant domains listed in Table 9; spacer sequences listed in Table 10; sequences of additional elements listed in Table 11). The corresponding protein sequences of the dXR molecule are listed in Table 13, and the generic configuration of the dXR molecule is illustrated in FIG. 38. Positive and negative controls based on a catalytically-dead Cas9 nuclease (with or without a ZNF10 repressor) with a B2M-targeting gRNA (spacer 7.14) or a non-targeting gRNA control (spacer 0.0) were included, along with a catalytically-active CasX 491 and gRNA with the same 7.37 and 0.0 spacers. Two days after transfection, total RNA was harvested, and reverse transcribed to generate a cDNA library. Changes in gene expression were calculated by performing qPCR on the targeted gene and a housekeeping gene as reference. Relative gene expression represents the amount of target-specific RNA relative to a reference gene normalized to the non-targeting guide condition for two biological replicates. In addition to the wells used for RNA measurements, a separate set of wells was harvested seven days post-transfection and analyzed for B2M protein expression. Expression of B2M protein was determined by using an antibody that detects the B2M-dependent HLA protein complex on the cell surface.
Molecule,percent editing at the B2M locus measured as indel rate [1],% of cells negative for the B2M protein ([2]; B2M-targeting gRNA),% cells expressing B2M protein ([2]; spacer 0.0 (non-targeting)),"% cells expressing B2M protein ([2]; spacer 7.37 (B2M-targeting, CasX))"
"dCasX668: dCasX variant, SEQ ID NO: 59355 (protein) QEIKRINKIRRRLVKDSNTKKAGKTRGPMKTLLVRVMTPDLRERLENLRKKPENIPQPISNTSRANLNKLLTDYTEMKKAILHVYWEEFQKDPVGLMSRVAQPASKKIDQNKLKPEMDEKGNLTTAGFACSQCGQPLFVYKLEQVSEKGKAYTNYFGRCNVAEHEKLILLAQLKPEKDSDEAVTYSLGKFGQRALDFYSIHVTKESTHPVKPLAQIAGNRYASSPVGKALSDACMGTIASFLSKYQDIIIEHQKVVKGNQKRLESLRELAGKENLEYPSVTLPPQPHTKEGVDAYNEVIARVRMWVNLNLWQKLKLSRDDAKPLLRLKGFPSFPLVERQANEVDWWDMVCNVKKLINEKKEDGKVFWQNLAGYKRQEALRPYLSSEEDRKKGKKFARYQLGDLLLHLEKKHGEDWGKVYDEAWERIDKKVEGLSKHIKLEEERRSEDAQSKAALTDWLRAKASFVIEGLKEADKDEFCRCELKLQKWYGDLRGKPFAIEAENSILDISGFSKQYNCAFIWQKDGVKKLNLYLIINYFKGGKLRFKKIKPEAFEANRFYTVINKKSGEIVPMEVNFNFDDPNLIILPLAFGKRQGREFIWNDLLSLETGSLKLANGRVIEKTLYNRRTRQDEPALFVALTFERREVLDSSNIKPMNLIGVARGENIPAVIALTDPEGCPLSRFKDSLGNPTHILRIGESYKEKQRTIQAKKEVEQRRAGGYSRKYASKAKNLADDMVRNTARDLLYYAVTQDAMLIFANLSRGFGRQGKRTFMAERQYTRMEDWLTAKLAYEGLPSKTYLSKTLAQYTSKTCSNCGFTITSADYDRVLEKLKKTATGWMTTINGKELKVEGQITYYNRYKRQNVVKDLSVELDRLSEESVNNDISSWTKGRSGEALSLLKKRFSHRPVQEKFVCLNCGFETHAAEQAALNIARSWLFLRSQEYKKYQTNKTTGNTDKRAFVETWQSFYRKKLKEVWKPAV",did not exhibit editing,,,
"dCasX676: dCasX variant, SEQ ID NO: 59357 (protein) QEIKRINKIRRRLVKDSNTKKAGKTRGPMKTLLVRVMTPDLRERLENLRKKPENIPQPISNTSRANLNKLLTDYTEMKKAILHVYWEEFQKDPVGLMSRVAQPASKKIDQNKLKPEMDEKGNLTTAGFACSQCGQPLFVYKLEQVSEKGKAYTNYFGRCNVAEHEKLIKLAQLKPEKDSDEAVTYSLGKFGQRALDFYSIHVTKESTHPVKPLAQIAGNRYASSPVGKALSDACMGTIASFLSKYQDIIIEHQKVVKGNQKRLESLRELAGKENLEYPSVTLPPQPHTKEGVDAYNEVIARVRMWVNLNLWQKLKLSRDDAKPLLRLKGFPSFPLVERQANEVDWWDMVCNVKKLINEKKEDGKVFWQNLAGYKRQEALRPYLSSEEDRKKGKKFARYQLGDLLLHLEKKHGEDWGKVYDEAWERIDKKVEGLSKHIKLEEERRSEDAQSKAALTDWLRAKASFVIEGLKEADKDEFCRCELKLQKWYGDLRGKPFAIEAENSILDISGFSKQYNCAFIWQKDGVKKLNLYLIINYFKGGKLRFKKIKPEAFEANRFYTVINKKSGEIVPMEVNFNFDDPNLIILPLAFGKRQGREFIWNDLLSLETGSLKLANGRVIEKTLYNRRTRQDEPALFVALTFERREVLDSSNIKPMNLIGVARGENIPAVIALTDPEGCPLSRFKDSLGNPTHILRIGESYKEKQRTIQAKKEVEQRRAGGYSRKYASKAKNLADDMVRNTARDLLYYAVTQDAMLIFANLSRGFGRQGKRTFMAERQYTRMEDWLTAKLAYEGLPSKTYLSKTLAQYTSKTCSNCGFTITSADYDRVLEKLKKTATGWMTTINGKELKVEGQITYYNRYKRQNVVKDLSVELDRLSEESVNNDISSWTKGRSGEALSLLKKRFSHRPVQEKFVCLNCGFETHAAEQAALNIARSWLFLRSQEYKKYQTNKTTGNTDKRAFVETWQSFYRKKLKEVWKPAV",did not exhibit editing,,,
"dCasX491: catalytically-dead CasX 491, SEQ ID NO: 18 (protein) QEIKRINKIRRRLVKDSNTKKAGKTGPMKTLLVRVMTPDLRERLENLRKKPENIPQPISNTSRANLNKLLTDYTEMKKAILHVYWEEFQKDPVGLMSRVAQPASKKIDQNKLKPEMDEKGNLTTAGFACSQCGQPLFVYKLEQVSEKGKAYTNYFGRCNVAEHEKLILLAQLKPEKDSDEAVTYSLGKFGQRALDFYSIHVTKESTHPVKPLAQIAGNRYASGPVGKALSDACMGTIASFLSKYQDIIIEHQKVVKGNQKRLESLRELAGKENLEYPSVTLPPQPHTKEGVDAYNEVIARVRMWVNLNLWQKLKLSRDDAKPLLRLKGFPSFPLVERQANEVDWWDMVCNVKKLINEKKEDGKVFWQNLAGYKRQEALRPYLSSEEDRKKGKKFARYQLGDLLLHLEKKHGEDWGKVYDEAWERIDKKVEGLSKHIKLEEERRSEDAQSKAALTDWLRAKASFVIEGLKEADKDEFCRCELKLQKWYGDLRGKPFAIEAENSILDISGFSKQYNCAFIWQKDGVKKLNLYLIINYFKGGKLRFKKIKPEAFEANRFYTVINKKSGEIVPMEVNFNFDDPNLIILPLAFGKRQGREFIWNDLLSLETGSLKLANGRVIEKTLYNRRTRQDEPALFVALTFERREVLDSSNIKPMNLIGVARGENIPAVIALTDPEGCPLSRFKDSLGNPTHILRIGESYKEKQRTIQAKKEVEQRRAGGYSRKYASKAKNLADDMVRNTARDLLYYAVTQDAMLIFANLSRGFGRQGKRTFMAERQYTRMEDWLTAKLAYEGLSKTYLSKTLAQYTSKTCSNCGFTITSADYDRVLEKLKKTATGWMTTINGKELKVEGQITYYNRYKRQNVVKDLSVELDRLSEESVNNDISSWTKGRSGEALSLLKKRFSHRPVQEKFVCLNCGFETHAAEQAALNIARSWLFLRSQEYKKYQTNKTTGNTDKRAFVETWQSFYRKKLKEVWKPAV",did not exhibit editing,~10%,,
"dCasX527: dCasX variant, SEQ ID NO: 24 (protein) QEIKRINKIRRRLVKDSNTKKAGKTRGPMKTLLVRVMTPDLRERLENLRKKPENIPQPISNTSRANLNKLLTDYTEMKKAILHVYWEEFQKDPVGLMSRVAQPASKKIDQNKLKPEMDEKGNLTTAGFACSQCGQPLFVYKLEQVSEKGKAYTNYFGRCNVAEHEKLILLAQLKPEKDSDEAVTYSLGKFGQRALDFYSIHVTKESTHPVKPLAQIAGNRYASGPVGKALSDACMGTIASFLSKYQDIIIEHQKVVKGNQKRLESLRELAGKENLEYPSVTLPPQPHTKEGVDAYNEVIARVRMWVNLNLWQKLKLSRDDAKPLLRLKGFPSFPLVERQANEVDWWDMVCNVKKLINEKKEDGKVFWQNLAGYKRQEALRPYLSSEEDRKKGKKFARYQLGDLLLHLEKKHGEDWGKVYDEAWERIDKKVEGLSKHIKLEEERRSEDAQSKAALTDWLRAKASFVIEGLKEADKDEFCRCELKLQKWYGDLRGKPFAIEAENSILDISGFSKQYNCAFIWQKDGVKKLNLYLIINYFKGGKLRFKKIKPEAFEANRFYTVINKKSGEIVPMEVNFNFDDPNLIILPLAFGKRQGREFIWNDLLSLETGSLKLANGRVIEKTLYNRRTRQDEPALFVALTFERREVLDSSNIKPMNLIGVARGENIPAVIALTDPEGCPLSRFKDSLGNPTHILRIGESYKEKQRTIQAKKEVEQRRAGGYSRKYASKAKNLADDMVRNTARDLLYYAVTQDAMLIFANLSRGFGRQGKRTFMAERQYTRMEDWLTAKLAYEGLSKTYLSKTLAQYTSKTCSNCGFTITSADYDRVLEKLKKTATGWMTTINGKELKVEGQITYYNRYKRQNVVKDLSVELDRLSEESVNNDISSWTKGRSGEALSLLKKRFSHRPVQEKFVCLNCGFETHAAEQAALNIARSWLFLRSQEYKKYQTNKTTGNTDKRAFVETWQSFYRKKLKEVWKPAV",did not exhibit editing,,,
dXR4: dCasX491 fused to ZNF334 KRAB domain; protein SEQ ID NO: 59441 (protein) MAPKKKRKVSRGGSGGGSAQEIKRINKIRRRLVKDSNTKKAGKTGPMKTLLVRVMTPDLRERLENLRKKPENIPQPISNTSRANLNKLLTDYTEMKKAILHVYWEEFQKDPVGLMSRVAQPASKKIDQNKLKPEMDEKGNLTTAGFACSQCGQPLFVYKLEQVSEKGKAYTNYFGRCNVAEHEKLILLAQLKPEKDSDEAVTYSLGKFGQRALDFYSIHVTKESTHPVKPLAQIAGNRYASGPVGKALSDACMGTIASFLSKYQDIIIEHQKVVKGNQKRLESLRELAGKENLEYPSVTLPPQPHTKEGVDAYNEVIARVRMWVNLNLWQKLKLSRDDAKPLLRLKGFPSFPLVERQANEVDWWDMVCNVKKLINEKKEDGKVFWQNLAGYKRQEALRPYLSSEEDRKKGKKFARYQLGDLLLHLEKKHGEDWGKVYDEAWERIDKKVEGLSKHIKLEEERRSEDAQSKAALTDWLRAKASFVIEGLKEADKDEFCRCELKLQKWYGDLRGKPFAIEAENSILDISGFSKQYNCAFIWQKDGVKKLNLYLIINYFKGGKLRFKKIKPEAFEANRFYTVINKKSGEIVPMEVNFNFDDPNLIILPLAFGKRQGREFIWNDLLSLETGSLKLANGRVIEKTLYNRRTRQDEPALFVALTFERREVLDSSNIKPMNLIGVARGENIPAVIALTDPEGCPLSRFKDSLGNPTHILRIGESYKEKQRTIQAKKEVEQRRAGGYSRKYASKAKNLADDMVRNTARDLLYYAVTQDAMLIFANLSRGFGRQGKRTFMAERQYTRMEDWLTAKLAYEGLSKTYLSKTLAQYTSKTCSNCGFTITSADYDRVLEKLKKTATGWMTTINGKELKVEGQITYYNRYKRQNVVKDLSVELDRLSEESVNNDISSWTKGRSGEALSLLKKRFSHRPVQEKFVCLNCGFETHAAEQAALNIARSWLFLRSQEYKKYQTNKTTGNTDKRAFVETWQSFYRKKLKEVWKPAVRSGGSGGGSTSKMKKFQIPVSFQDLTVNFTQEEWQQLDPAQRLLYRDVMLENYSNLVSVGYHVSKPDVIFKLEQGEEPWIVEEFSNQNYPDTSPKKKRKV,,,98.23%,19.80%
